Results on four molecules are retold here after publication PMC9254699 (2021).

No end group written: not given here.

In test [1] the target is T1, TGF-β1 (Homo sapiens, UniProt P01137). Briefly: SPR. On the technique in general: SPR reads the build-up and loss of mass on a sensor chip optically.
Test [2] addresses T1, TGF-β1. Nature of the test: SPR. This is another data set of the same source.
In test [3] the target is T1, TGF-β1. Briefly: 125I-TGF-β1 sequestering in 10% serum by peptide-conjugated microspheres.
Test [4] has as its target T1, TGF-β1. Briefly: sequestering from PRP by peptide-conjugated microspheres.

T1 sequence (P01137 279-390): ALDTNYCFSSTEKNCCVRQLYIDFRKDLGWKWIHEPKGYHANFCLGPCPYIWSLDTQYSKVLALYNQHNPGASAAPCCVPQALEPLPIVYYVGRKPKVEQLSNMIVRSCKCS

Take CIAEIDLIPRDRPF: the Kd in the test with TGF-β1 [1] was 183 nM; with TGF-β1 [2] it was 106 nM.

CLIDFRIPADREVPI [Scrambled RIP]: the Kd in the test with TGF-β1 [1] is 745 nM; with TGF-β1 [2], 765 nM.

Turning to CIAEIDLIPRDRPFV [RIP], the Kd was found to be 98.3 nM with TGF-β1 [1] and 60 nM with TGF-β1 [2].

As for CIAEIDLIPRDRPF (also: conjugated to PEG microspheres), the Kd is around 211 nM in the test with TGF-β1 [3] and around 215 nM with TGF-β1 [4].

By Kd is commonly meant the free concentration of one partner at which half of the binding sites on the other are occupied at equilibrium, for simple one-to-one binding. Low readings indicate higher affinity, high ones lower affinity.
